Results taken from PMC3176823, “A Membrane-Bound Vertebrate Globin” (PLoS ONE, 2011).

Target: the molecule itself
Assay: SDS-PAGE + MALDI-TOF; purified GbXΔNC heat-denatured in SDS sample buffer (2.5% β-mercaptoethanol), 15% SDS-PAGE; also 10–15% gradient gels (PhastSystem) in the absence and presence of DTT; bands identified by MALDI-TOF after tryptic digest

B1: N- and C-terminally truncated Danio rerio globin X (GbXΔNC) (domain or fragment, Danio rerio (zebrafish), UniProt A0AC58HMV5 25-184, looked up)
chain: PAGLTANHIRLIKESWRLIQEDIAKVGIIMFVRLFETHPECKDVFFLFRDVEDLERLRTSRELRAHGLRVMSFIEKSVARLDQLERLETLALELGKSHYRYNAPPKYYGYVGAEFICAVRPILKDRWTPELEEAWKTLFQYVTSIMREGFLEEERNKRSN
notes: globin X (GbX) of zebrafish (Danio rerio), amino acids 25 to 184 (the globin core), cloned into pET3a; Heme protein; No tag is mentioned for the pET3a construct; also called recombinant truncated GbX; source: E. coli BL21(DE3)pLysS, purified (ammonium sulfate precipitation, ion-exchange, size exclusion chromatography)
stoichiometry N: 2
